Data from patent US11866467.

What was measured:
[1] = biological target: TGF-β receptor (type I and II receptors) on mouse cells (MFB-F11 fibroblasts, mouse splenocytes, mouse CD4+ T cells) (mouse) (UniProt Q64729); assay: cell-based or functional assay
[2] = biological target: TGF-β receptor on human peripheral blood CD4+ T cells (human) (UniProt P36897); assay: cell-based or functional assay
Sequence of UniProt P36897 (P36897 34-503, chain 1 of 2): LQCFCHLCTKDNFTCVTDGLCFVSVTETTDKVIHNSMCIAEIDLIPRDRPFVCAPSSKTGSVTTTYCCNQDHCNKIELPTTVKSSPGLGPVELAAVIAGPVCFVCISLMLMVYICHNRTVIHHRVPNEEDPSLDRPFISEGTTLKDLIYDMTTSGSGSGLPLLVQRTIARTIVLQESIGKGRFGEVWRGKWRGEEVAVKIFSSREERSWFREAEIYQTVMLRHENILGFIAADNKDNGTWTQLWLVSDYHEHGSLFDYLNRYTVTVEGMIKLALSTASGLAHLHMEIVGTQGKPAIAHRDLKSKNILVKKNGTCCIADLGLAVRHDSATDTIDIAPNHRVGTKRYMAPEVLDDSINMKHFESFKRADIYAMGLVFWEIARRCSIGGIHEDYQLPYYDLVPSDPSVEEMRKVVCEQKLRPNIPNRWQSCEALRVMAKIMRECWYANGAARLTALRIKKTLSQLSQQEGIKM
Sequence of UniProt P36897 (P37173 23-567, chain 2 of 2, further chain): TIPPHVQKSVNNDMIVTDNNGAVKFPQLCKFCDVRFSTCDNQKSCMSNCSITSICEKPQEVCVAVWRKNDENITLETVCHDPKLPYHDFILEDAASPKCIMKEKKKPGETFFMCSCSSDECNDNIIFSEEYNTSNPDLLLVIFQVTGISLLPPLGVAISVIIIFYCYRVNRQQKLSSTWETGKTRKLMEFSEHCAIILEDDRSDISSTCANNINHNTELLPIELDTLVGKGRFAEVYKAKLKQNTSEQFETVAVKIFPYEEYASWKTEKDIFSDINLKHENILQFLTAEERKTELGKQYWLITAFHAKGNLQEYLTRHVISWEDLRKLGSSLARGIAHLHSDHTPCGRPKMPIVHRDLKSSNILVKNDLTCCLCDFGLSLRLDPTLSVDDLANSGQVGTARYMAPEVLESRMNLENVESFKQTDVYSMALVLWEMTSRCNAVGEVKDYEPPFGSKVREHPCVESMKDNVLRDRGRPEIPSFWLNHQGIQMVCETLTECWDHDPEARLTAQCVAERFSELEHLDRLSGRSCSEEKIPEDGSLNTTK

Sequence of UniProt Q64729 (Q64729 30-503, chain 1 of 2): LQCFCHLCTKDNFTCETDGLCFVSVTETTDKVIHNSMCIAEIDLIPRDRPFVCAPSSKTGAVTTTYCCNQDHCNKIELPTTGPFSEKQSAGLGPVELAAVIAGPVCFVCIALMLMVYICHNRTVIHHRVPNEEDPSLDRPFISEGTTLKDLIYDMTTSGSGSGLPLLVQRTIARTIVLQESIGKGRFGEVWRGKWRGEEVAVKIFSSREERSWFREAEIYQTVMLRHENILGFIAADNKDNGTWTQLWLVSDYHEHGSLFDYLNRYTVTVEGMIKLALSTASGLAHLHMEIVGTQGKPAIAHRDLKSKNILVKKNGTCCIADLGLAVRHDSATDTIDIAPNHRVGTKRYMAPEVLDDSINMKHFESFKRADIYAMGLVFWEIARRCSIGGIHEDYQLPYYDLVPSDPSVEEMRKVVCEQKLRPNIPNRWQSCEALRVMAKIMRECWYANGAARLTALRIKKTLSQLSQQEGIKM
Sequence of UniProt Q64729 (Q62312 24-567, chain 2 of 2, further chain): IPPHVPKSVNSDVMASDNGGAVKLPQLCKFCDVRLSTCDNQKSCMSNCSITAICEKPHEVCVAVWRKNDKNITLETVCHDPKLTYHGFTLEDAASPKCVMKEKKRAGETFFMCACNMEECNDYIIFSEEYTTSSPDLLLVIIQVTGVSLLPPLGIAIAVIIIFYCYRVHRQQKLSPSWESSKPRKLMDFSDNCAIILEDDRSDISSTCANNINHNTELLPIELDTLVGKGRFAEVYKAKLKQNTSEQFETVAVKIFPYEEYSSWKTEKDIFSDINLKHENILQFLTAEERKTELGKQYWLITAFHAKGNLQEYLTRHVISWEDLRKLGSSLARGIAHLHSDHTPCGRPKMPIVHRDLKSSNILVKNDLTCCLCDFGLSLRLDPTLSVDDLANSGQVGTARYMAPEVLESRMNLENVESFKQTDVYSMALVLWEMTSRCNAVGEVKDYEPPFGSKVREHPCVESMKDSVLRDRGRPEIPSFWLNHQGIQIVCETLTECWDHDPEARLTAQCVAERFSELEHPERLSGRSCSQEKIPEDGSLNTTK

Substance | Foxp3+ Treg conversion, % of all mouse CD4+ cells at 38.1 ng/ml (0.78 nM) [1] [%] | MFB-F11 reporter cells, alkaline phosphatase, OD405 at 100 ng/ml (maximum signal) [1] [OD405] | CD4+CD25+Foxp3+ Treg among human CD4+ T cells, maximum [2] [%] | Foxp3+ Treg conversion, % of all mouse CD4+ cells at 10 ng/ml (0.78 nM monomeric hTGF-β1) [1] [%]
H. polygyrus TGF-β Mimic (TGM), purified recombinant protein with hexa-histidine C-terminal tag (ligand) | 90.7 | 2.46 | 84 | 
recombinant human TGF-β1 (R&D Systems) (from UniProt P01137 279-390) (ligand) |  | 1.48 |  | 79.7
